In paper PMC4072508, “Genome-Wide Prediction and Validation of Peptides That Bind Human Prosurvival Bcl-2 Proteins” (PLoS Computational Biology, 2014) one finds SPOT signal as a fraction of Bim BH3's signal on the same receptor and array data, which are given here for 50 molecules.

This assay addresses T1, Mcl-1, Q07820.
T1 chain: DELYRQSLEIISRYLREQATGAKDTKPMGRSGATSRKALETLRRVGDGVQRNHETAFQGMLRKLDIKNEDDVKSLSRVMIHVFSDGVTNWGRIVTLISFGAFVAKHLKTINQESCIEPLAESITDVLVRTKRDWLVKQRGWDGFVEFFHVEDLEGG
Briefly: peptide SPOT array, c-Myc-tagged receptor at 1 uM or 100 nM, anti-c-Myc-Cy3.

EGEEFTVTCTIKDVSSSVYSTWKREN [KIT] came in with an SPOT signal as a fraction of Bim BH3's signal on the same receptor and array of 0.02.

Molecule VKGAEITGKAIQKGASKLRERIQPEE [SPG20] had an SPOT signal as a fraction of Bim BH3's signal on the same receptor and array of 0.02.

In the case of CVQSTKPSLMIQKAAIQALRKMEPKD [APOB], the SPOT signal as a fraction of Bim BH3's signal on the same receptor and array came out at 0.09.

Molecule IIKDQLNVSNIDQVARHLRGLLEEEC [CCDC24] displayed an SPOT signal as a fraction of Bim BH3's signal on the same receptor and array of 0.02.

As for EELLRSSADFLQRLSAILRTSLRFRL [NOTCH3], the SPOT signal as a fraction of Bim BH3's signal on the same receptor and array stood at 0.11.

Take PKPDSDVTQTINTVAYHARPDSDQRF [BARD1]: the SPOT signal as a fraction of Bim BH3's signal on the same receptor and array amounted to 0.01.

Take KEYRNQFPEILRRAAAHLECIFRFEL [MAGEE1]: the SPOT signal as a fraction of Bim BH3's signal on the same receptor and array amounted to 0.02.

With FVQVASAASALKDVSYKIYDDENQKI [NXF5], the SPOT signal as a fraction of Bim BH3's signal on the same receptor and array turned out to be 0.02.

As to SRTLTLIAKVIQNLANFAKFGNKEEY [RASAL2], the SPOT signal as a fraction of Bim BH3's signal on the same receptor and array was 0.08.

Regarding QDKILVAVKTLKDASDNARKDFHREA [NTRK2], the SPOT signal as a fraction of Bim BH3's signal on the same receptor and array was found to be 0.02.

In turn, SGEFARICRDLSHILDAVVISCAKDG [PCNA] had an SPOT signal as a fraction of Bim BH3's signal on the same receptor and array of 0.01.

LLPRETVAGALRRLGARGGGKGRKGP [CD2BP2] showed an SPOT signal as a fraction of Bim BH3's signal on the same receptor and array of 0.13.

As for DPLNDNIATLLHQSSDKFVSELWKDV [MYH9], the SPOT signal as a fraction of Bim BH3's signal on the same receptor and array was determined as 0.02.

Regarding GKRMKQFPEVIKYLSRNVVHSVRREH [BAZ2A], the SPOT signal as a fraction of Bim BH3's signal on the same receptor and array is 0.29.

In the case of AYKTVEVVESIEKISTESIQTYEETA [BFSP1], the SPOT signal as a fraction of Bim BH3's signal on the same receptor and array worked out at 0.01.

The molecule ERFEGFCVDMLRELAELLRFRYRLRL [GRIK5] displayed an SPOT signal as a fraction of Bim BH3's signal on the same receptor and array of 0.11.

The molecule AAVVLSVATFLYQVAERVRYYREFHH [ACCN3] displayed an SPOT signal as a fraction of Bim BH3's signal on the same receptor and array of 0.03.

Regarding RFNLMQVGRLLQQLAMTGSEEGDPRT [GAPVD1], the SPOT signal as a fraction of Bim BH3's signal on the same receptor and array was 0.04.

PLSNDTIARRIQELANDMEDQLIEQI [SCAND3] registered an SPOT signal as a fraction of Bim BH3's signal on the same receptor and array of 0.02.

Regarding CKDPKACTILLRGASKEILSEVERNL [CCT3], the SPOT signal as a fraction of Bim BH3's signal on the same receptor and array was determined as 0.02.

In the case of NATHEEVVHLDRNAGDEVTITVEYLR [SNTG2], the SPOT signal as a fraction of Bim BH3's signal on the same receptor and array amounted to 0.01.

Molecule EVQDRLAHKGISQAARYVYQRLINDG [DAGLB] showed an SPOT signal as a fraction of Bim BH3's signal on the same receptor and array of 0.16.

The molecule EEITSDAAYVIQDLATLFEELQREKK [XXXX] returned an SPOT signal as a fraction of Bim BH3's signal on the same receptor and array of 0.02.

In the case of EITQHNVTELLRDVAAWGRARATGGD [C19orf51], the SPOT signal as a fraction of Bim BH3's signal on the same receptor and array amounted to 0.02.

In turn, GETDANVAKFLNRLSDYLFTLARYAA [MMAB] registered an SPOT signal as a fraction of Bim BH3's signal on the same receptor and array of 0.02.

Turning to SKVRERYVQMLDQIARQMIDFYKDLV [C1orf125], the SPOT signal as a fraction of Bim BH3's signal on the same receptor and array amounted to 0.03.

For SNKIRNLSTTLQTIATKLCRELYSKE [CLEC12A], the SPOT signal as a fraction of Bim BH3's signal on the same receptor and array stood at 0.17.

Molecule KTVVDLVSADLEEVAQKCGLSYKAEA [RAD51L3] showed an SPOT signal as a fraction of Bim BH3's signal on the same receptor and array of 0.01.

Take EQWAREIGAQLRRMADDLNAQYERRR [BBC3]: the SPOT signal as a fraction of Bim BH3's signal on the same receptor and array worked out at 0.76.

For PSIQLHGAKLLEELGTGLIQQYKPDS [HEATR6], the SPOT signal as a fraction of Bim BH3's signal on the same receptor and array amounted to 0.01.

For the molecule TGVNGEISYSLFQASEEIGKTFKINP [PCDHB13], the SPOT signal as a fraction of Bim BH3's signal on the same receptor and array was found to be 0.01.

Turning to LEGFRKNEEVLKRCAQEYLSRVKKEE [TACC2], the SPOT signal as a fraction of Bim BH3's signal on the same receptor and array turned out to be 0.04.

In turn, TRELQELARKDQELADASENLLTENT [TXNDC11] came in with an SPOT signal as a fraction of Bim BH3's signal on the same receptor and array of 0.01.

For the molecule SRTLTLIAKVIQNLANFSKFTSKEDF [SYNGAP1], the SPOT signal as a fraction of Bim BH3's signal on the same receptor and array was found to be 0.08.

ITMVPQASEILAKMSELVHRRLRHGS [ZFPM2] returned an SPOT signal as a fraction of Bim BH3's signal on the same receptor and array of 0.1.

Regarding FVQDASAASALKDVSYKIYDDENQKI [NXF2], the SPOT signal as a fraction of Bim BH3's signal on the same receptor and array was determined as 0.01.

In the case of LLLPKGVVLKLKPVATRFPRKAWRQK [GON4L], the SPOT signal as a fraction of Bim BH3's signal on the same receptor and array is 0.32.

As to VPAGVSLARNLKRVAEVWMDEYAEYI [GALNT10], the SPOT signal as a fraction of Bim BH3's signal on the same receptor and array was found to be 0.02.

The molecule LFIPLNISCLLKEGSEHLFDSFEPET [DEPDC5] returned an SPOT signal as a fraction of Bim BH3's signal on the same receptor and array of 0.02.

Turning to EQAARVAIEHLDKISDSVLVDIKDTE [CCT5], the SPOT signal as a fraction of Bim BH3's signal on the same receptor and array is 0.01.

For MAADTQVSETLKRFAGKVTTASVKER [GCN1L1], the SPOT signal as a fraction of Bim BH3's signal on the same receptor and array stood at 0.11.

VPSGTSLARNLKRVAETWMDEFAEYI [GALNTL6] came in with an SPOT signal as a fraction of Bim BH3's signal on the same receptor and array of 0.02.

With YKSLLLLAYLIRNGSERVVTSAREHI [CLINT1], the SPOT signal as a fraction of Bim BH3's signal on the same receptor and array worked out at 0.05.

With KKDKARVSELLQGLSFSGDSDVEKDN [PGBD1], the SPOT signal as a fraction of Bim BH3's signal on the same receptor and array came out at 0.01.

The molecule HNATLILSEGLKRAGHQLQHDLFFDT [GLDC] gave an SPOT signal as a fraction of Bim BH3's signal on the same receptor and array of 0.02.

Regarding KVRAHHYSVALRRLGQLLGSRPRPPP [FASTK], the SPOT signal as a fraction of Bim BH3's signal on the same receptor and array was 0.14.

QDKMLVAVKALKEASESARQDFQREA [NTRK1]: the SPOT signal as a fraction of Bim BH3's signal on the same receptor and array came to 0.02.

On to RNIASQTVARLKDVARRISSCLDFEQ [HERC2], for which the SPOT signal as a fraction of Bim BH3's signal on the same receptor and array was determined as 0.06.

Regarding AIVADRMVEILFHYADRALKKCPDQG [VPS8], the SPOT signal as a fraction of Bim BH3's signal on the same receptor and array worked out at 0.02.

Regarding FEVDDGTSVLLKKNSQHFLPRWKCEQ [GINS1], the SPOT signal as a fraction of Bim BH3's signal on the same receptor and array turned out to be 0.05.
